The record followed here is paper PMC9282251.

For experiment [1], the target named is T1, GFP-tagged Kif4A (human), O95239.
T1 chain: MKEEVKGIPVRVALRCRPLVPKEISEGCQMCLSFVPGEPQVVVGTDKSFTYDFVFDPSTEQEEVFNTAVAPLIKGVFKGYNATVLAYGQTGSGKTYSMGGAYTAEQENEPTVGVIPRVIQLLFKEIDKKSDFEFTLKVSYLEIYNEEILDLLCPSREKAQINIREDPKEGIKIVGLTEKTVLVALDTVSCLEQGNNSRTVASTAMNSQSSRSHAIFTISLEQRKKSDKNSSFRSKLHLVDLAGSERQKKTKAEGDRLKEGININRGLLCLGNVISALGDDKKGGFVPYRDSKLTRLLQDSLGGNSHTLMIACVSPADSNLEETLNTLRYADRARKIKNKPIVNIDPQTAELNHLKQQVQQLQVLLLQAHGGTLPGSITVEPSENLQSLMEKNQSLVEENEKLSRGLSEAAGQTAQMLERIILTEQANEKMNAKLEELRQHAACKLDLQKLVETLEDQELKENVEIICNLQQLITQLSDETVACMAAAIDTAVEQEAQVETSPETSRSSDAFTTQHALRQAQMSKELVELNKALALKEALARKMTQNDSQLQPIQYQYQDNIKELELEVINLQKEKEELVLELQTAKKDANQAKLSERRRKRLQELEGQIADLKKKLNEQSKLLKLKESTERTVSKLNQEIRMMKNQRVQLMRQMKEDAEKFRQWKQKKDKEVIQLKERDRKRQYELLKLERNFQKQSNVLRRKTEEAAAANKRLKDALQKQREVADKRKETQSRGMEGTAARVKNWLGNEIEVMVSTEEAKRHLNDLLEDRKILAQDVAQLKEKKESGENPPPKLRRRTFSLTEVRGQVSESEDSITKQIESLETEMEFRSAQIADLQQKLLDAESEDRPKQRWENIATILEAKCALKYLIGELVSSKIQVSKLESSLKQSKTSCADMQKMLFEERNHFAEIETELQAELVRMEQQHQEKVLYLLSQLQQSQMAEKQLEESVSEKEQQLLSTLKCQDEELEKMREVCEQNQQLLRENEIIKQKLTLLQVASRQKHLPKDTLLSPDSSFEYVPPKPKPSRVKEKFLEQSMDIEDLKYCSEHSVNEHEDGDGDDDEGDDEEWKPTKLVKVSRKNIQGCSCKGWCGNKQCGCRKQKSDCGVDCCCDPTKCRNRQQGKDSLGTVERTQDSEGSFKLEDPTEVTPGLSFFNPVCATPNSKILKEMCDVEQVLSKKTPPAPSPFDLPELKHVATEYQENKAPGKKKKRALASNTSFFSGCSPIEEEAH
As to the kind of experiment: single-molecule photobleaching and fluorescence intensity analysis. The settings on record: remark: other sources report otherwise.

For experiment [2], the target named is T2, Kif4A-mCherry (human), O95239.
T2 chain: T1 chain
Described as above. The settings on record: remark: other sources report otherwise.

B1: GFP-tagged Kif4A, O95239 1-1232 (natural protein)
chain: T1 chain
For orientation: stoichiometry N means a count of units in the complex or per binding partner. Take B1: the stoichiometry N in experiment [1] amounted to 2.

B2: Kif4A-mCherry, O95239 1-1232 (natural protein)
chain: T1 chain
Turning to B2, the stoichiometry N in experiment [2] amounted to 2.
